# Data published in the RNAGym collection of RNA variant scans (doi:10.1093/molbev/msab373).
# B1: Azoarcus group I ribozyme (parent)
# chain: GUGCCUUGCGCCGGGAAACCACGCAAGGGAUGGUGUCAAAUUCGGCGAAACCUAAGCGCCCGCCCGGGCGUAUGGCAACGCCGAGCCAAGCUUCGGCGCCUGCGCCGAUGAAGGUGUAGAGACUAGACGGCACCCACCUAAGGCAAACGCUAUGGUGAAGGCAUAGUCCAGGGAGUGGCGAAAGUCACACAAACCGG
# Variants of: B1
# Assay: reverse-splicing fitness (ratio to wild type); higher = more active; in vitro selection; Mg2+ level not given
# In short: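 An in vitro group I ribozyme library with randomized positions was T7-transcribed and gel-purified. In triplicate, 10 pmol RNA in EPPS pH 7.5 was reacted with 50 pmoles of a 30-nt RNA substrate for 1 h at 37 °C across several added MgCl2 levels (1–48 mM), then stopped with EDTA. Products were reverse transcribed from a substrate-complementary primer, PCR-amplified and sequenced (HiSeq 4000). Fitness is a variant's read proportion after selection over that before, normalised to wild type.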
row,Variant,reverse-splicing fitness
1,C82U A111U C150U C169A U176G,0.00643
2,C82U A120C C150U C169G U176A,0.0126
3,C82U A120C C150U C169G U176C,0.0117
4,C82U A120C C150U C169G U176G,0.0038
5,C82U A120C C150A C169U U176A,0.0175
6,C82U A120C C150A C169U U176G,0.00498
7,C82U A120C C150A C169U U176C,0.0169
8,C82U A120C A145G C150G C169A U176A,0.0124
9,C82U A120C A145G C150G C169A U176C,0.0131
10,C82U A120C A145G C150G C169A U176G,0.00772
11,C82U A120C A145U C150A C169A U176A,0.0094
12,C82U A120C A145U C150A C169A U176G,0.00386
13,C82U A120C A145U C150A C169A U176C,0.00669
14,C82U A120C C150U C169A U176G,0.00426
15,C82U A120C C150U C169A U176C,0.0107
16,C82U A120C C150U C169A U176A,0.0158
17,C82U A120C A145U C150U C169A,0.0082
18,C82U A120C A145U C150U C169G,0.00708
19,C82U A120C A145U C150U C169U,0.0166
20,C82U A111U C150A C169A U176A,0.0195
21,C82U A111U C150A C169A U176G,0.00696
22,C82U A111U C150A C169A U176C,0.0168
23,C82U A120C A145U C150A C169A,0.00683
24,C82U A120C A145U C150A C169U,0.00769

row,Variant,reverse-splicing fitness
1,C82U A120C A145U C150A C169G,0.00588
2,C82U A120C A145C C150G C169A U176A,0.00866
3,C82U A120C A145C C150G C169A U176C,0.0042
4,C82U A120C A145C C150G C169A U176G,0.00379
5,C82U A120C A145C C169U,0.0225
6,C82U A120C A145C C169G,0.00713
7,C82U A120C A145C C169A,0.00538
8,C82U A111U C150A C169U U176C,0.0152
9,C82U A111U C150A C169U U176A,0.0198
10,C82U A111U C150A C169U U176G,0.0075
11,C82U A120C A145U U176G,0.0114
12,C82U A120C A145U U176C,0.0723
13,C82U A120C A145U U176A,0.0458
14,C82U A111U C169A U176A,0.0141
15,C82U A111U C169A U176G,0.00543
16,C82U A111U C169A U176C,0.02
17,C82U A120C A145G C150U,0.139
18,C82U A120C A145G C150G,0.0255
19,C82U A120C A145G C150A,0.0315
20,C82U A120C A145U C150G C169A U176A,0.00958
21,C82U A120C A145U C150G C169A U176G,0.00423
22,C82U A120C A145U C150G C169A U176C,0.00716
23,C82U A120C A145G U176A,0.0488
24,C82U A120C A145G U176G,0.00954

row,Variant,reverse-splicing fitness
1,C82U A120C A145G U176C,0.0715
2,C82U A120C A145C C150U C169G U176G,0.00398
3,C82U A120C A145C C150U C169G U176C,0.00645
4,C82U A120C A145C C150U C169G U176A,0.0142
5,C82U A120C C150U C169G,0.00713
6,C82U A120C C150U C169U,0.0165
7,C82U A120C C150U C169A,0.00876
8,C82U A120C A145G C169A,0.00815
9,C82U A120C A145G C169U,0.0217
10,C82U A120C A145G C169G,0.00711
11,C82U A120C A145G C150G U176A,0.00924
12,C82U A120C A145G C150G U176G,0.00605
13,C82U A120C A145G C150G U176C,0.0157
14,C82U A111U C150U C169U,0.0102
15,C82U A111U C150U C169A,0.00856
16,C82U A111U C150U C169G,0.00892
17,C82U A120C C150U C169U U176A,0.0176
18,C82U A120C C150U C169U U176G,0.00448
19,C82U A120C C150U C169U U176C,0.0177
20,C82U A120C C169G U176C,0.0125
21,C82U A120C C169G U176A,0.0123
22,C82U A111U C150A C169A,0.00982
23,C82U A111U C150A C169G,0.00941
24,C82U A111U C150A C169U,0.0133

row,Variant,reverse-splicing fitness
1,C82U A111U C150A U176C,0.0289
2,C82U A111U C150A U176G,0.00896
3,C82U A111U C150A U176A,0.0157
4,C82U A111U C169G U176G,0.0052
5,C82U A111U C169G U176C,0.0183
6,C82U A111U C169G U176A,0.0162
7,C82U A120C A145G C169U U176A,0.0177
8,C82U A120C A145G C169U U176C,0.0171
9,C82U A120C A145G C169U U176G,0.00344
10,C82U A120C A145G C150U U176C,0.0637
11,C82U A120C A145G C150U U176A,0.0355
12,C82U A120C A145G C150U U176G,0.00907
13,C82U A120C C150A U176C,0.0193
14,C82U A120C C150A U176G,0.00583
15,C82U A120C C150A U176A,0.0163
16,C82U A111U A145U C169A,0.00706
17,C82U A111U A145U C169U,0.0106
18,C82U A111U A145U C169G,0.00791
19,C82U A120C A145U C150G U176G,0.0036
20,C82U A120C A145U C150G U176C,0.0134
21,C82U A120C A145U C150G U176A,0.00757
22,C82U A120C C169A,0.00809
23,C82U A120C C169G,0.00705
24,C82U A111U A145U C169A U176C,0.00904

row,Variant,reverse-splicing fitness
1,C82U A111U A145U C169A U176A,0.00935
2,C82U A111U A145U C169A U176G,0.00592
3,C82U A120C A145U C169G U176G,0.00338
4,C82U A120C A145U C169G U176A,0.00692
5,C82U A120C A145U C169G U176C,0.00836
6,C82U A120C C150G C169U,0.00921
7,C82U A120C C150G C169G,0.00683
8,C82U A120C C150G C169A,0.00883
9,C82U A120C A145U C150G C169U U176C,0.0116
10,C82U A120C A145U C150G C169U U176A,0.00974
11,C82U A120C A145U C150G C169U U176G,0.00467
12,C82U A120C A145U C150A U176C,0.0137
13,C82U A120C A145U C150A U176G,0.00478
14,C82U A120C A145U C150A U176A,0.0114
15,C82U A120C A145U C169A U176G,0.00364
16,C82U A120C A145U C169A U176C,0.00593
17,C82U A120C A145U C169A U176A,0.00753
18,C82U A111U C150G C169A U176C,0.00895
19,C82U A111U C150G C169A U176A,0.00971
20,C82U A111U C150G C169A U176G,0.00774
21,C82U A120C A145C C169G U176A,0.0129
22,C82U A120C A145C C169G U176G,0.00341
23,C82U A120C A145C C169G U176C,0.00783
24,C82U A111U A145U C150U C169U U176G,0.00582

row,Variant,reverse-splicing fitness
1,C82U A111U A145U C150U C169U U176C,0.0115
2,C82U A111U A145U C150U C169U U176A,0.0148
3,C82U A120C C150A C169A,0.00872
4,C82U A120C C150A C169U,0.0109
5,C82U A120C C150A C169G,0.00799
6,C82U A120C A145G C150U C169G U176G,0.00466
7,C82U A120C A145G C150U C169G U176A,0.0128
8,C82U A120C A145G C150U C169G U176C,0.0155
9,C82U A111U U176G,0.0233
10,C82U A111U U176C,0.173
11,C82U A111U U176A,0.107
12,C82U A120C A145C C150G,0.0204
13,C82U A120C A145C C150U,0.0393
14,C82U A120C A145C C150A,0.0114
15,C82U A120C A145G C150G C169U U176A,0.0113
16,C82U A120C A145G C150G C169U U176G,0.00619
17,C82U A120C A145G C150G C169U U176C,0.0111
18,C82U A120C A145C C169U U176G,0.00368
19,C82U A120C A145C C169U U176A,0.0191
20,C82U A120C A145C C169U U176C,0.0127
21,C82U A120C C150G C169U U176A,0.00844
22,C82U A120C C150G C169U U176C,0.0136
23,C82U A120C C150G C169U U176G,0.00422
24,C82U A111U A145U U176C,0.154

row,Variant,reverse-splicing fitness
1,C82U A111U A145U U176G,0.0313
2,C82U A111U A145U U176A,0.112
3,C82U A120C A145U C150G C169G U176A,0.00652
4,C82U A120C A145U C150G C169G U176G,0.00365
5,C82U A120C A145U C150G C169G U176C,0.00491
6,C82U A120C A145G C150A C169U U176G,0.0043
7,C82U A120C A145G C150A C169U U176A,0.0136
8,C82U A120C A145G C150A C169U U176C,0.0166
9,C82U A120C A145C C169A U176G,0.00299
10,C82U A120C A145C C169A U176A,0.00575
11,C82U A120C A145C C169A U176C,0.00368
12,C82U A120C A145U C150U C169U U176G,0.00397
13,C82U A120C A145U C150U C169U U176C,0.0144
14,C82U A120C A145U C150U C169U U176A,0.0148
15,C82U A111U C150U U176G,0.0154
16,C82U A111U C150U U176A,0.0519
17,C82U A111U C150U U176C,0.0816
18,C82U A120C A145U C150A C169G U176A,0.00898
19,C82U A120C A145U C150A C169G U176G,0.00397
20,C82U A120C A145U C150A C169G U176C,0.0081
21,C82U A111U C169U U176G,0.00559
22,C82U A111U C169U U176A,0.0149
23,C82U A111U C169U U176C,0.013
